Experimental data taken from patent US20140271607A1.
Blank lines part the entries; values can stand above or below the molecule they belong to.

Experiments:
[1] = molecular target: FX (blood coagulation factor X); test: cell-based or functional assay
[2] = molecular target: rsTF (recombinant soluble tissue factor) (UniProt P13726); test: cell-based or functional assay
[3] = molecular target: T1, rsTF (recombinant soluble tissue factor), P13726
T1 chain: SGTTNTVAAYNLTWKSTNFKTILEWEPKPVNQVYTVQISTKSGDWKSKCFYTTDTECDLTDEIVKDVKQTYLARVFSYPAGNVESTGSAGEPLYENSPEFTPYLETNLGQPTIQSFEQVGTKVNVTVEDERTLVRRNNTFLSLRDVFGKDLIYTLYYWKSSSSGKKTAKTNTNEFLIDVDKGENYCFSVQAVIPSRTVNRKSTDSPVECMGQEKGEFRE

[4] = molecular target: FX (blood coagulation factor X)

EC50 (ng/mL), chromogenic assay (COASET) [1]: 6.06 ng/mL
Molecule: FacVII-ATKAVC-40 kDa PEG conjugate (C-terminal PEGylated) (from UniProt P08709 1-466) (enzyme)

EC50 (ng/mL), chromogenic assay (COASET) [1]: 1.75 ng/mL
EC50 (ng/mL), chromogenic assay (COASET), Run 1 [1]: 1.36 ng/mL
EC50 (ng/mL), chromogenic assay (COASET), Run 2 [1]: 1.16 ng/mL
Molecule: FacVII-ATKAVC (FacVII derivative with SOD1 residues 1-6, ATKAVC, at the C-terminus) (from UniProt P08709 1-466) (enzyme)

Potency (IU/mL), clotting assay (StaclotVIIa-rTF) [2]: 1990 IU/mL
Residual activity, % (compared to FacVIIa-ATKAVC), clotting assay (StaclotVIIa-rTF) [2]: 44.7%
Specific activity (IU/mg as FacVIIa), clotting assay (StaclotVIIa-rTF) [2]: 20600 IU/mg
B1: FacVIIa-ATKAVC-PEG-Fc complex (protein, part only; not given: Fc region and PEG linker, not shown: a dimerising Fc or GST)
chain: MVSQALRLLCLLLGLQGCLAAVFVTQEEAHGVLHRRRRANAFLEELRPGSLERECKEEQCSFEEAREIFKDAERTKLFWISYSDGDQCASSPCQNGGSCKDQLQSYICFCLPAFEGRNCETHKDDQLICVNENGGCEQYCSDHTGTKRSCRCHEGYSLLADGVSCTPTVEYPCGKIPILEKRNASKPQGRIVGGKVCPKGECPWQVLLLVNGAQLCGGTLINTIWVVSAAHCFDKIKNWRNLIAVLGEHDLSEHDGDEQSRRVAQVIIPSTYVPGTTNHDIALLRLHQPVVLTDHVVPLCLPERTFSERTLAFVRFSLVSGWGQLLDRGATALELMVLNVPRLMTQDCLQQSRKVGDSPNITEYMFCAGYSDGSKDSCKGDSGGPHATHYRGTWYLTGIVSWGQGCATVGHFGVYTRVSQYIEWLQKLMRSEPRPGVLLRAPFPATKAVC
modifications: C-terminal cysteine linked to the maleimide end of 10 kDa PEG

B2: FacVIIa-ATKAVC (activated FacVII-ATKAVC derivative) (protein)
chain: AVFVTQEEAHGVLHRRRRANAFLEELRPGSLERECKEEQCSFEEAREIFKDAERTKLFWISYSDGDQCASSPCQNGGSCKDQLQSYICFCLPAFEGRNCETHKDDQLICVNENGGCEQYCSDHTGTKRSCRCHEGYSLLADGVSCTPTVEYPCGKIPILEKRNASKPQGRIVGGKVCPKGECPWQVLLLVNGAQLCGGTLINTIWVVSAAHCFDKIKNWRNLIAVLGEHDLSEHDGDEQSRRVAQVIIPSTYVPGTTNHDIALLRLHQPVVLTDHVVPLCLPERTFSERTLAFVRFSLVSGWGQLLDRGATALELMVLNVPRLMTQDCLQQSRKVGDSPNITEYMFCAGYSDGSKDSCKGDSGGPHATHYRGTWYLTGIVSWGQGCATVGHFGVYTRVSQYIEWLQKLMRSEPRPGVLLRAPFPATKAVC
Potency (IU/mL), clotting assay (StaclotVIIa-rTF) [3]: 16700 IU/mL
Specific activity (IU/mg as FacVIIa), clotting assay (StaclotVIIa-rTF) [3]: 46100 IU/mg

EC50 (ng/mL), chromogenic assay (COASET) [1]: 1.38 ng/mL
EC50 (ng/mL), chromogenic assay (COASET), Run 1 [1]: 1.62 ng/mL
EC50 (ng/mL), chromogenic assay (COASET), Run 2 [1]: 1.67 ng/mL
B3: blood coagulation factor VII (Factor VII, FacVII), native (protein)
chain: AVFVTQEEAHGVLHRRRRANAFLEELRPGSLERECKEEQCSFEEAREIFKDAERTKLFWISYSDGDQCASSPCQNGGSCKDQLQSYICFCLPAFEGRNCETHKDDQLICVNENGGCEQYCSDHTGTKRSCRCHEGYSLLADGVSCTPTVEYPCGKIPILEKRNASKPQGRIVGGKVCPKGECPWQVLLLVNGAQLCGGTLINTIWVVSAAHCFDKIKNWRNLIAVLGEHDLSEHDGDEQSRRVAQVIIPSTYVPGTTNHDIALLRLHQPVVLTDHVVPLCLPERTFSERTLAFVRFSLVSGWGQLLDRGATALELMVLNVPRLMTQDCLQQSRKVGDSPNITEYMFCAGYSDGSKDSCKGDSGGPHATHYRGTWYLTGIVSWGQGCATVGHFGVYTRVSQYIEWLQKLMRSEPRPGVLLRAPFP
Relative activity, %, chromogenic assay (COASET) [4]: 100%
Relative activity, %, chromogenic assay (COASET), Run 1 [4]: 100%
Relative activity, %, chromogenic assay (COASET), Run 2 [4]: 100%

EC50 (ng/mL), chromogenic assay (COASET) [1]: 12.2 ng/mL
B4: FacVII-40 kDa PEG (N-terminal PEGylated FacVII) (protein)
chain: B3 chain
Relative activity, % (compared to FacVII), chromogenic assay (COASET) [4]: 11.3%
